In patent publication US12195761B2, “Bioprinted, 3D scaffolds for cellular test beds and methods of use thereof” (University of Florida Research Foundation, Inc., priority 2020, dated 2025):

B1: Rat beta-nerve growth factor (protein, UniProt P25427 122-241, looked up)
Beta-nerve growth factor: SSTHPVFHMGEFSVCDSVSVWVGDKTTATDIKGKEVTVLGEVNINNSVFKQYFFETKCRAPNPVESGCRGIDSKHWNSYCTTTHTFVKALTTDDKQAAWRFIRIDTACVCVLSRKAARRG
notes: Rat beta-nerve growth factor (R&D Systems 556-NG-100)
B2: glial cell line-derived neurotrophic factor (protein, UniProt P39905 78-211, looked up)
Glial cell line-derived …: SPDKQMAVLPRRERNRQAAAANPENSRGKGRRGQRGKNRGCVLTAIHLNVTDLGLGYETKEELIFRYCSGSCDAAETTYDKILKNLSRNRRLVSDKVGQACCRPIAFDDDLSFLDDNLVYHILRKHSAKRCGCI
notes: glial cell line-derived neurotrophic factor (R&D Systems 512-GF-010/CF)

How the values were obtained:
[1] = tested on: rat fibroblast; assay: Supplemental rat fibroblast viability study after printing in the bioink; format: cell-based; details: rat fibroblasts; compared to I2959 counterparts
Text: It is anticipated that crosslinking time can be reduced for the LAP group in the future to further increase viability.^40 Therefore, LAP became the crosslinker used for the later experiments for the advantages of LAP over I2959, as previously reported.^31,41

[2] = tested on: DRG neural growth cone (GAP43); assay: DRG neurite outgrowth in competitive in vitro test beds, GAP43 signal; format: cell-based; details: normalized to total positive area, 7 days, n=3
Experimental: (§1) DRG Neurite Outgrowth in Competitive in vitro Test Beds. A 6-layer rectangular model with two arms or “chambers” were printed on each end (12 mm long, 5 mm wide, and 1.7 mm height). A base layer (0.7 mm height) was printed containing only the hydrogel. On top of the base on either side two “chambers” were printed; each chamber contained a concentration of 1 μg/mL of either NGF, GDNF, or no GF as control. To establish a competitive cue assay, three test bed groups were printed: NGF versus control (NGF/control), GDNF/control, or NGF/GDNF. DRGs were trimmed on the same day as testbed fabrication. Each DRG was semi-encapsulated at the center of the hydrogel testbeds by first placing the DRG directly in the middle of the two-chambered testbed and then securing in place with pH-neutralized Col-d solution at a concentration of 3 mg/mL. Col-d allowed for securing the DRG quickly without the need for direct UV exposure of the DRG. The test beds were incubated for 30 minutes to allow for collagen gelation and then media was added. Media was changed three hours following the addition of DRGs to account for bulk growth factor release into the media. DRGs were cultured for 7 days with media being changed every 2 days.
Following 7 days of culture, DRGs were fixed in 2% paraformaldehyde for 1 hour followed by three PBS rinses of 45 minutes each before blocking in 0.3% Triton X-100 and 3% goat serum in 1×PBS for 1 hour. The primary antibodies used were β-III tubulin to identify microtubules (i.e., indicating neurite extension) and GAP43, a “plasticity” protein that is expressed at high levels in neuronal growth cones (a secondary indicator of new neurite formation). Both antibodies were diluted at 1:500 dilutions and incubated on samples at 4° C. for 48 hours. DRGs were then washed with 0.05% Tween-20 in 1×PBS three times for 6 hours each. Secondary antibodies, AlexaFluor 488 α-rabbit and AlexaFluor 568 α-mouse at 1:500 dilutions, were added for 16 hours in blocking buffer. DRGs were rinsed with 0.05% Tween-20 in 1×PBS three times for 6 hours each. Cell nuclei were stained with DAPI in deionized water for 5 minutes at room temperature. For β-III tubulin marker, top-view images of DRGs were acquired with a Zeiss Axio Imager 2 microscope. ImageJ and the neurite tracer plugin were used to quantify neurite lengths extending from the DRG body. From a ranked list of directional neurite lengths, the five longest neurite extensions were averaged for each chamber side. […] For the GAP43 marker, samples were imaged from the top with a Zeiss LMA 880 confocal microscope. ImageJ was used to threshold positive signal for all images. Positive area was measured as directional outgrowth from each DRG in the left and right directions toward the growth factor chambers relative to the center of the DRG body. […]

[3] = tested on: Schwann cells (SCs); assay: SC migration in 3D bioprinted hydrogels; format: cell-based, Rat; details: 1 μg/mL growth factor in bioprinted MAHA 10/Col-I hydrogel; 7 days; n=5
Experimental: SC Migration in 3D Bioprinted Hydrogels. The experimental groups included 1 μg/mL of NGF or GDNF encapsulated within 1 mL of bioink, whereas the control group contained no growth factor (no GF) (n=5). The bioinks were used to print a cylinder of 8 mm diameter and 2 mm height. The control group was printed without any growth factor. Next, SCs were seeded on top of the hydrogels at a cell density of 10^5 cells/cm^2 and cultured for 7 days with the media changed every 2 days. Hydrogel samples, stained using a Live/Dead assay, were then placed cell-side-down in a 35-mm diameter glass-bottom dish and imaged using a Zeiss LSM 880 laser-scanning confocal microscope. Z-stacked image of 500 μm deep at 10× magnification were analyzed to assess SC migration into the hydrogel using a Zeiss ZEN 2 software by creating a heat map based on relative depth within the hydrogel to measure the farthest migration points (n=5) in each sample. By taking the average of cell migration depth, this assessment examined the total migration into the biomaterials in 3D culture.

[4] = tested on: DRG neurites; assay: DRG neurite outgrowth in competitive in vitro test beds, β-III tubulin neurite length; format: cell-based; details: 7 days, n=5; for ratio of neurite length, growth factor side to control side: growth factor/control test bed, 1 μg/mL
Experimental: as §1
Following 7 days of culture, DRGs were fixed in 2% paraformaldehyde for 1 hour followed by three PBS rinses of 45 minutes each before blocking in 0.3% Triton X-100 and 3% goat serum in 1×PBS for 1 hour. The primary antibodies used were β-III tubulin to identify microtubules (i.e., indicating neurite extension) and GAP43, a “plasticity” protein that is expressed at high levels in neuronal growth cones (a secondary indicator of new neurite formation). Both antibodies were diluted at 1:500 dilutions and incubated on samples at 4° C. for 48 hours. […] ImageJ and the neurite tracer plugin were used to quantify neurite lengths extending from the DRG body. […] Positive area was measured as directional outgrowth from each DRG in the left and right directions toward the growth factor chambers relative to the center of the DRG body. […]

Molecule	viability of bioprinted cells by photoinitiator [1]	fraction positive GAP43 signal ([2]; NGF/GDNF test bed)	fraction positive GAP43 signal ([2]; growth factor/control test bed)	SCs migrated distance into hydrogels [3] [μm]	ratio of neurite length, NGF to GDNF ([4]; NGF/GDNF test bed, 1 μg/mL each)	ratio of neurite length, growth factor side to control side [4]
Cc1cc(C)c(C(=O)P(=O)([O-])c2ccccc2)c(C)c1.[Li+] [LAP, lithium phenyl-2,4,6-trimethylbenzoyl-phosphinate]	highest viability	–	–	–	–	–
B1	–	0.58	0.63	301±89.4	1.09±0.19	1.42±0.13
B2	–	0.42	0.66	403±79.6	–	1.41±0.06
